Assay [1] addresses endogenous VPS26, O75436. The assay can be described thus: GFP-based co-IP, western blot band quantification. To be noted: chain shown with the change; HEK293T cells, transient transfection; normalised to GFP band intensity; n = 3; parent: est. 100; read off a plot. Background: In western blotting, separated proteins are transferred to a membrane and probed.
Assay [2] has as its target VPS35, Q96QK1. The assay can be described thus: GFP-based co-IP, western blot band quantification. To be noted: chain shown with the change; HEK293T cells, transient transfection; normalised to GFP band intensity; n = 3; parent: est. 100; read off a plot.

B1: GFP-DENND4C fragment 1087-1271, WT, Q5VZ89 Y1239D (protein)
chain: PKTSLLHIARTHSFENVSCHLPDSRTCMSESTWNPEHRSSPVPEMLEESQELLEPVVDDVPKTTATVDTYESLLSDSNSNQSRDLKTVSKDLRNKRSSLYGIAKVVQREDVETGLDPLSLLATECTGGKTPDSEDKLFSPVIARNLADEIESDMNLKSPLGSKSSSMELHREENRESGMTTAFIH
Regarding B1, the percent of parent (relative intensity (WT = 100)) in assay [1] was 18; in assay [2], 22.

These data come from paper PMC12311110.
